Data published in the supplement of paper PMC11246515.
± gives the standard deviation of the averaged measurements.

Test: total protein half-life in vivo (active degradation + dilution); higher = more stable protein
[1] = wild type E. coli NCM3722, growth: C-lim chemostat, doubling time 3 h
[2] = wild type E. coli NCM3722, growth: C-lim chemostat, doubling time 6 h
[3] = wild type E. coli NCM3722, growth: C-lim chemostat, doubling time 12 h
[4] = E. coli NCM3722 delta-clpP delta-lon delta-hslV, growth: N-lim chemostat, doubling time 6 h
[5] = E. coli NCM3722 delta-clpP, growth: N-lim chemostat, doubling time 6 h
[6] = E. coli NCM3722 delta-hslV, growth: N-lim chemostat, doubling time 6 h
[7] = E. coli NCM3722 delta-lon, growth: N-lim chemostat, doubling time 6 h
[8] = E. coli NCM3722 delta-smpB, growth: N-lim chemostat, doubling time 6 h
[9] = wild type E. coli NCM3722, growth: N-lim chemostat, doubling time 6 h
[10] = wild type E. coli NCM3722, growth: N-lim chemostat, doubling time 12 h
[11] = wild type E. coli NCM3722, growth: P-lim chemostat, doubling time 6 h
[12] = wild type E. coli NCM3722, growth: P-lim chemostat, doubling time 12 h

Sequence | total protein half-life in vivo [1] [h] | total protein half-life in vivo [2] [h] | total protein half-life in vivo [3] [h] | total protein half-life in vivo [4] [h] | total protein half-life in vivo [5] [h] | total protein half-life in vivo [6] [h] | total protein half-life in vivo [7] [h] | total protein half-life in vivo [8] [h] | total protein half-life in vivo [9] [h] | total protein half-life in vivo [10] [h] | total protein half-life in vivo [11] [h] | total protein half-life in vivo [12] [h]
MTDYAISKKSKRSLWIPILVFITLAACASAGYSYWHSHQVAADDKAQQRVVPSPVFYALDTFTVNLGDADRVLYIGITLRLKDEATRSRLSEYLPEVRSRLLLLFSRQDAAVLATEEGKKNLIAEIKTTLSTPLVAGQPKQDVTDVLYTAFILR [P0ABX8] | 1.72 ± 0.4 | 2.16 ± 0.27 | 3 ± 0.22 |  |  |  |  |  |  |  |  | 
MTEAMKITLSTQPADARWGEKATYSINNDGITLHLNGADDLGLIQRAARKIDGLGIKHVQLSGEGWDADRCWAFWQGYKAPKGTRKVVWPDLDDAQRQELDNRLMIIDWVRDTINAPAEELGPSQLAQRAVDLISNVAGDRVTYRITKGEDLREQGYMGLHTVGRGSERSPVLLALDYNPTGDKEAPVYACLVGKGITFDSGGYSIKQTAFMDSMKSDMGGAATVTGALAFAITRGLNKRVKLFLCCADNLISGNAFKLGDIITYRNGKKVEVMNTDAEGRLVLADGLIDASAQKPEMIIDAATLTGAAKTALGNDYHALFSFDDALAGRLLASAAQENEPFWRLPLAEFHRSQLPSNFAELNNTGSAAYPAGASTAAGFLSHFVENYQQGWLHIDCSATYRKAPVEQWSAGATGLGVRTIANLLTA | 3.45 ± 0.34 | 6.53 ± 0.15 | 10.4 ± 0.37 | 5.81 ± 0.29 | 5.46 ± 0.11 | 5.706 ± 0.054 | 5.758 ± 0.022 | 5.22 ± 0.19 | 5.61 ± 0.15 | 10.4 ± 1.1 | 5.543 ± 0.044 | 12.5 ± 0.4
MTEAQRHQILLEMLAQLGFVTVEKVVERLGISPATARRDINKLDESGKLKKVRNGAEAITQQRPRWTPMNLHQAQNHDEKVRIAKAASQLVNPGESVVINCGSTAFLLGREMCGKPVQIITNYLPLANYLIDQEHDSVIIMGGQYNKSQSITLSPQGSENSLYAGHWMFTSGKGLTAEGLYKTDMLTAMAEQKMLSVVGKLVVLVDSSKIGERAGMLFSRADQIDMLITGKNANPEILQQLEAQGVSILRV [P0A9W0] | 3.08 ± 0.11 | 6 ± 0.48 | 10.6 ± 1.7 | 5.74 ± 0.06 | 5.84 ± 0.28 | 6.01 ± 0.41 | 5.66 ± 0.8 | 5.95 ± 0.36 | 5.68 ± 0.2 | 10.9 ± 0.72 | 6.75 ± 1.5 | 13.3 ± 0.25
MTEKKYIVALDQGTTSSRAVVMDHDANIISVSQREFEQIYPKPGWVEHDPMEIWATQSSTLVEVLAKADISSDQIAAIGITNQRETTIVWEKETGKPIYNAIVWQCRRTAEICEHLKRDGLEDYIRSNTGLVIDPYFSGTKVKWILDHVEGSRERARRGELLFGTVDTWLIWKMTQGRVHVTDYTNASRTMLFNIHTLDWDDKMLEVLDIPREMLPEVRRSSEVYGQTNIGGKGGTRIPISGIAGDQQAALFGQLCVKEGMAKNTYGTGCFMLMNTGEKAVKSENGLLTTIACGPTGEVNYALEGAVFMAGASIQWLRDEMKLINDAYDSEYFATKVQNTNGVYVVPAFTGLGAPYWDPYARGAIFGLTRGVNANHIIRATLESIAYQTRDVLEAMQADSGIRLHALRVDGGAVANNFLMQFQSDILGTRVERPEVREVTALGAAYLAGLAVGFWQNLDELQEKAVIEREFRPGIETTERNYRYAGWKKAVKRAMAWEEHDE [P0A6F3] | 3.28 ± 0.085 | 5.398 ± 0.033 | 9.61 ± 1.5 |  | 6.74 ± 0.14 | 6.32 ± 0.39 |  | 5.64 ± 0.067 | 5.983 ± 0.059 | 12.7 ± 0.32 | 6.31 ± 0.66 | 13 ± 0.85
MTELAQLQASAEQAAALLKAMSHPKRLLILCMLSGSPGTSAGELTRITGLSASATSQHLARMRDEGLIDSQRDAQRILYSIKNEAVNAIIATLKNVYCP |  |  |  |  |  |  |  |  |  |  |  | 9.02
MTEPHVAVLSQVQQFLDRQHGLYIDGRPGPAQSEKRLAIFDPATGQEIASTADANEADVDNAVMSAWRAFVSRRWAGRLPAERERILLRFADLVEQHSEELAQLETLEQGKSIAISRAFEVGCTLNWMRYTAGLTTKIAGKTLDLSIPLPQGARYQAWTRKEPVGVVAGIVPWNFPLMIGMWKVMPALAAGCSIVIKPSETTPLTMLRVAELASEAGIPDGVFNVVTGSGAVCGAALTSHPHVAKISFTGSTATGKGIARTAADHLTRVTLELGGKNPAIVLKDADPQWVIEGLMTGSFLNQGQVCAASSRIYIEAPLFDTLVSGFEQAVKSLQVGPGMSPVAQINPLVSRAHCDKVCSFLDDAQAQQAELIRGSNGPAGEGYYVAPTLVVNPDAKLRLTREEVFGPVVNLVRVADGEEALQLANDTEYGLTASVWTQNLSQALEYSDRLQAGTVWVNSHTLIDANLPFGGMKQSGTGRDFGPDWLDGWCETKSVCVRY | 3.12 ± 0.38 | 5.23 ± 0.96 | 8.67 ± 0.33 | 4.33 |  |  |  |  |  |  | 5.34 ± 0.17 | 10.3 ± 0.53
MTEPLKPRIDFDGPLEVDQNPKFRAQQTFDENQAQNFAPATLDEAQEEEGQVEAVMDAALRPKRSLWRKMVMGGLALFGASVVGQGVQWTMNAWQTQDWVALGGCAAGALIIGAGVGSVVTEWRRLWRLRQRAHERDEARDLLHSHGTGKGRAFCEKLAQQAGIDQSHPALQRWYASIHETQNDREVVSLYAHLVQPVLDAQARREISRSAAESTLMIAVSPLALVDMAFIAWRNLRLINRIATLYGIELGYYSRLRLFKLVLLNIAFAGASELVREVGMDWMSQDLAARLSTRAAQGIGAGLLTARLGIKAMELCRPLPWIDDDKPRLGDFRRQLIGQVKETLQKGKTPSEK [P0A8R7] | 2.96 ± 0.27 | 4.75 ± 0.28 | 11.2 ± 0.13 | 5.42 ± 0.51 | 5.1 ± 0.24 | 4.51 ± 0.62 | 4.85 ± 0.12 | 4.83 ± 0.29 | 5.23 ± 0.17 | 8.5 ± 0.23 | 5.02 ± 0.48 | 8.52 ± 0.38
